A protein production outcome set (Wang et al. 2014)

Test: label from the status in PepcDB records

Sequence | protein production
MIRDVNDNKKKKVDEILSIVKVSSLLFSAMAFLQYTFNLTKYNNKFLAYYSILSILISIFLLSTIYILWSLASLNKYKDHINKIQLIEIILFMIIFIMAILVSGGNSSNNKFLFLFIIITSTIQGGMHRGCVVSVVSSAIILAIDLIFSGNADVNIYFQNDLILAGVFVLTAWTLGFYVKTENDHIKELQTLVNEDGLTGVYNHRYFYDKLREKMHISEVENEKLSLIFMDIDYFKHYNDLYGHQKGDEALKKIGKLLKNIARENDLVARYGGEEFAIILPNTSEEEATKIAERIRNKVEKTYFEGQENQPNANFTVSVGIAVFPDKAKSELELVKCADDALYRAKFFHKNRVETYVSVLDELKRDLNEEENALVASIKTLISIINAKDKYTYSHVERVVIYSRLMAKKLGLSEDEKKQLIYGAYMHDIGKINIPNEILTKKMRLTKEEWEILKQHPKDGVEIIKSVNSLKNVVPLILYHHERYDGFGYPVGLKEKEIPYLARVLTVIDSFDAMTSSRPYNKRKTYDEGLIELERCSGTQFDPEIVGIFSEVVKENINEIQDF | failed
MIRERSINLGHQVEGAIFTRHNHIVSVDGDGILSFQNNITKVKPNEAIFIPSKVMVRFSFNSNENKSIKVSLYHINGINLNCKQDKVTSLINAYIEVEKLNLTNRETIIELIGSRLEKIKNNRVLYNYDPLEKKIYRLVSKDLKKKWSLEEVCKLTYTSKSTLNRKLKDNQTSMGQIISNARLDYATILITNTSLSVDEISMLSGFNSTSYFCKKFKESHGFSPKQYRKLLAYNQVPLNRI | failed
MIRHLLVAHDLTPEADVALARAAQLARQHDARVSLLHVYDPGLSASAVKTVSAMLQLKRKEAGLDEDSAIHLFRGQPIDGILQQTRALEPDLLLMGAHHQKTFERFGNTTLDQVVRRSRVPVLLAVREADEPYRQALSALDFSQCACTALRQAYRLLPVEADLHALHVFESPDDGVLGLPRQNAAHLATQAGLIEQLLSDEQERLPGVGPQLSHEVVPGVLPYSLDAALKQRQPELLALGRHSRNALMQALLGNLAQRYLRQPSCDVLVTS | failed
MIRHTVVFTLKHASHSLEEKRFLVDAKKILSAIRGVTHFEQLRQISPKIDYHFGFSMEFADQAAYTRYNDHPDHVAFVRDRWVPEVEKFLEIDYVPLGSVV | not failed
MIRIGNLYVYLKNYIMKFTKLTIAFLSVFFCLVVACGSDGINDDPKTPDVTEPVTPNEPDEPDNPSVVKVPTLQKNVQDEWKIDSIDDGFIYYNYERYDDVSKAQQIVNVLEIDLLSNKYKVEFTYNNGDSLSTTAQVRGAIGGINGGYEQEAIYIRINGTNISEVTLPEGHLRYWKHDGALYSDGKSDIGIIYGGRNGKAAIDTYKQHSAKYLLASAPTLIDDYNPLGETFVGNYTMEQLESFDYEDYRRHQGVRHPRTVVAVTEDKDLLLVTIDGRWAGKAEGMSAKEVTLFLKKHFNPQYALNMDGGGSTTMYVKGKGAAKTDVVNYPTDNGVFNHYGQRRVTTHIIVKRK | failed
MIRLILILINILFCHYLYALDCQKRLFDISINEKLSIQESLDELAKYCSFSIIVKDKIAKEKLETLQNSVNIHQMSLDEIFNFFIKEHDLSYDFDGKILRISGINTKIFKISYITSIREGQSITKASVDAKPRQSEYSGSFDDAEDNMIKSMEKFDFWQNIEKEIIVLLKNSHEDYEAKTPIINPNAGLIIVTGTNSQLKSVKNYLQKLENRLKKQVIIDVSILAVSLNESHSSGINWQNFNIGLNSQVNNENSFIQFQNGQGFVKNLGLRANLNFDSIINFLSQNGKTSVLSNPKLMALNNQQAIISVGDTINYQVKESSKGTENGTTVSESYNNYSIFVGILLNILPEISDDGKIMLRINPSLSDFKYPEDNKRQKEPRTIAPDTIQKKLSSVVQVENNQTLILGGLISHDKSNEKNSINFLSKIPILGSLFKGEVLNSKATEIVFIITPSIVDSVNAPSLKDLGFKHYELEHHHHHH | failed
MIRPARHIAAMSPYALAQLKAPAGKRLISLSQNESLRPPSRRAIEAAARAGDAGHLYPDPDWSALRAALSGLHGIPVEGILCGNGSMELIACLAQAFADERNAILAPAHGYPFFRSAAQMARARFDLAAERDRHVCVDAMLAAVQPDTRIVFVANPGNPTGTRIPRHELVRLREGLPDDTLLVIDEAYGEFADHLGEAMFDLVGRCDTVVLRTFSKAYGLAGMRVGWGLFPPEIARELRKVMNPNNIAVAGQLAATAALADQDYMVETCRQTAALRDGLRARLSKAGYDVPESFSNFVLIRMESPDDARRADEALRAEGVFLRPQGGVGLADSLRVTIGPAEKIDIAAGLLERWAEGKKT | failed
MIRQKSIRRVKPPEDYQARLATPFAVLGLRTDEDWLTDIEYLPPDTPTLVPQTPLAREVCDQLQAYLADPGFVFDLSLHIGGTVHQRRVWQAIQDIPAGATRSYAAIAVELHSAPRAVGQACGANRLPIVIPCHRVIAKSGGLGGFMNASDGLPLTIKRWLLQHEGI | failed
MIRQLSLKDYEGVAGSALIDEIRSLGESLQGYNVRHINSTIIGGGVAEILSSLVPLMEDVGLTVNWEVLAGTTEFFHTTKLFHNGMHGQPVNITGEMLENYLAIAQKNQNLLDGDADLVVIHDQQPLGLTAFRGRTRGRWLWYCHVDPRYAVPEVWYFLAPMVATCDAAVFHLPEYARDLEHHHHHH | failed
MIRYLALLALLAAPWVQAADALHDDLPLKYLEQAPAEPRNQPLVIFLHGYGSNEADLFGLRQRLPASYTYVSVRAPQTLEEGSYQWFHRKGQGPYDGVTSELASGAELIGQFVRAALAKYQTQPDKVVLVGFSQGAVMAYEVGLRHPQSVRGIAALSGKILPVLAAQVKNNPSLQRLGIFIGHGTLDQRLPYSDAVDAQRLLQGLSLQPQFHAYPGLGHSISEAEIDDLKGWLQGLNP | failed
MISANDLSPAELAALLHFHADAGVEWLLEEEAIDRFAEFEAMKAARRPAAQAQQQRPAAGERPAPGQAQVRPNAAVRPAPAERAASGPQPAIPDGEAVQQARFVAETARSLVELKTAIESFNGCNLKHSARSTIFASGDAESGIMVIGSAPSAEDDREGMPFSGKSGQLFDKMLAAIGLTRSAILLTQVIPWRPPGNRAPSAAEMDICRPFIERQIALAEPKAILLLGNFSARFFFGENDTIHGLRGRWKEIAAADCVIPAIASLHPQDLLTAPVNKRLAWNDLLAFQAKLKSLSLLRN | failed
MISKFIEKRMLNMLDEWYSAMSKRKMNHVCTLKEKIDQHLPKIKKNTKLWMRYQLFQARHQLLFENQNGLDSLFDGLYGLEDKMDDELKYYLYFFSGLYEMVKTAPKHAVHHFKKAEQYLAAIHNTFEAADLYYQTAGAYYLMKSPPLSVQYVKKALHIYLHQFGYIKKVITCKLLLAVNYIDQERYEKAEQLFKEIIKKTQQLHDENLLCHAYYNLGFLKATEKKDQEALLYFRKVLKNQEFEMNSPVSYLHCVYESVRALFKTGNITEAKAVLQKGKELSEKVDIQTIYLKLKTLEALYTSAEDPYEQLLEYVLELEKIEAWVDLEVLLEDITEYYKKKDDFEKAAFFIMRG | failed
MISNEEMKSGNILNLFCKFALPAVVGVLIAGIQGIIDGFFIGNAIGSHGLAGITLAYPPYLAIIAAGIIIGIGSSSLIALRLGEGKTGEALEIMNNAFPLCLIAGAVFTAGGLIFCRTSISLLGTNGPALSLASEYLHIIFAGSVFMILAIALDPLVRNNGKPRLCMKIMVAGVLANIILDYLLVMHMEMGMSGAATATVLSFVLPAVLLTHHLLSSQAKLRLRIKSMRVKTATALKILNAGVPSFVMQMSFALMLFVQNYMLLRYGSELAVSAYGVIGYIFSIFYMLFEGIALGVQPIIGFNYGAGNYGRVLKTLKLTILSCTLIGALGFTLIYLFPESLVQIFSQRDSELLDATLQGMDIFMFSLLVEGTVLLTAVYYQSINRVRAALFIHLGKIFIFLFPLLFILPHFFDLNGVWAASPATEYLMAAVVMVMLSKEFDFLRNSRKVEIKQPVTLKITSEVTSKHETSASRNTVKTGNEECTGFIPFKHTEREAS | failed
MISNFIKRAITGILFVAILVGCILYNSFSFGILFMAISALTIYEFGQLINSRAEGVNVNKTIIMLGGAYLFLAVMGFCIDAADSKIFIPYLLLLLYLMISELYLKKASSMLNWAYSMLSQLYIGLPFALLNVLAFHTDPEYSSVSYNPILPLSIFIFLWLSDTGAYCVGSLIGKHRLFERISPKKSWEGSIGGGVVAIGASFVLAHYFTIMSMWEWAGLALVVVVFGTWGDLTESLLKRQLHVKDSGTILPGHGGMLDRFDSALMAIPAAVFYLYALTWF | failed
MISNKRRPKIKIWNKEQMALYLKAIKKDRLYAAFVTDSKSGLRKSELLALRWSDIDFSTGLTKIERGWVRSPKGTLYLSDLKSENSERTLVFSTDLLKVLLEHKSRQDEEKKTAGKNYIDNGLVFCREDGSYINPSTFTRRHYDLTAKAKLPRISVHALRHSISTALLESGKVDLKQIQEMLGHKDISTTGNYYTDVLERMKQKTSELIDNLIQTELEHHHHHH | failed
MISNNTRRVYRISFSFFEQYCLEHNLQSLPADPRSIISFIGHQKELLQASTGMQLSKQTLTTRIAAIRFYHIQAGFPTPTEHPQVIRVMRGLSRNHHRLVQDYDQQPLEHHHHHH | failed
MISPELVKEALKKKKVRSEEAFGLEYLRFNDDYKDIPRGTAIFKDFIIWGYPHIGRIFLLETGLREQFEAPFWVEEKVDGYNTRIFKYGDNYYALSRGGFICPFTTDRLPDLIDLRILDENPDLVICAEVAGPENPYIEESPPYVKEDVQLFVFDFMKKNEQGFLSQEEKMELIEKYNLPHVEILGRFTASEEGIKKIKEILKRFNEEGREGVVFKEDSERNKRAKYITSYANLMDIKTNAKNMLQLPPEYYTNRILRLVLFMYEEGLKTTEHLYEELGRAFIDGLFQAIEQFEKEHKVYKTFTCKFRKKENAIALLELLSKTSKHIQVKERRLEKEGDYWRLEFDKVFLNMTGLLGHLLSGGIVYD | not failed
MISRRTFALAAVASVLLGGTFVGAKAGLSYLPPLLFVALRFDIAAVVLLGYVVVTRSRDELLPRTRGDVLGILSTGLFALGLANALIFVGQQSATSAVAAIIFSLNPILTPVFAAILLSDERLSARGGLGMVIGLLGVGLVVSPDPAMLLSGGIGKLILFAGAASAALGSVLIRWSGGGLSSTVRTAWALPVAAALCHALSIGMGESAATAVWSPTAIAALLYVGIFAGAIAYIAYFGLLDVTGAIQANLIFYVVPVVSTLGGWALLGEAITPTAVAGFLTIFTGFVVLGSESVDIRALLPATTDEGDTVSESLGIADEQRGFESD | failed
MISVCIATYNGEKYLAEQLDSILLQVSEEDELIISDDGSTDHTLEILRTYAANYPQIQLLQGPGQGVIANFAFALTHTKGEVIFLADQDDVWLPNKVTTVTEYFETHPDIQVVISDLKIVDADLQVTNPSYFKFRKVKPGFWRNAIKSGYIGAGMAFRQEMKNVILPIPPEVPMHDMWIGLLAARKKQTGLIKEPLVLYRRHGANVSPIITKTSFQQKLNWRVNLLKALHQRLKEQRLEHHHHHH | not failed
MITDCCPGFGSVAKYIAVSMLEASFDVASMAKTSTKVFILEVMGRHAGWIAAAGGLASNEDHEVPIIILFPEVTFDQEKFLAKTDHYVKEYGYCTVVVSEGVKGTDGKFLSDQGLRDAFGHAQLGGVAPVIANIVKNGLGLEHHHHHH | not failed
MITDEHIELFLAQAHRYGDAKLMLCSSGNLSWRIGEEALISGTGSWVPTLAKEKVSICNIASGTPTNGVKPSMESTFHLGVLRERPDVNVVLHFQSEYATAISCMKNKPTNFNVTAEIPCHVGSEIPVIPYYRPGSPELAKAVVEAMLKHNSVLLTNHGQVVCGKDFDQVYERATFFEMACRIIVQSGGDYSVLTPEEIEDLEIYVLGKKTK | not failed
MITIDALGQVCPIPVIRAKKALAELGEAGGVVTVLVDNDISRQNLQKMAEGMGYQAEYLEKDNGVIEVTIVAGEGCAVETSGTAADSGLVVAIGRNTMGEGSEELGRILLKGFIYSLRELTPPPARLLFFNSGAHLTSKDSNSIEDLKAMAAQGTIIQTCGTCLNYYGITEQLAVGQVANMYDIVTAMTEAKRLINI | failed
